Assay results: doi:10.1101/2021.01.04.425348 (bioRxiv, 2021)

Molecular target: the molecule itself
Assay: high-speed atomic force microscopy

B1: PDI I289A (enzyme)
chain: not shown
- stoichiometry N: 2
